These results are taken from patent US20230012273A1 (Boehringer Ingelheim, published 2023).

To fix the notation:
B1: Antibody A (antibody, human IgG1, kappa, L234A L235A)
heavy: not shown
light: DIQMTQSPSSLSASVGDRVTITCRASQDINNYLAWFQQKPGKAPKSLIYTASSLHSGVPSKFSGSGSGTDFTLTISSLQPEDFATYYCQQYVSYPYTFGQGTKLEIKRTVAAPSVFIFPPSDEQLKSGTASVVCLLNNFYPREAKVQWKVDNALQSGNSQESVTEQDSKDSTYSLSSTLTLSKADYEKHKVYACEVTHQGLSSPVTKSFNRGEC
B2: Antibody A10 (antibody, human IgG1, kappa, L234A L235A)
heavy: not shown
light: B1 light
B3: Anti-SIRPα antibody KWAR23 (antibody, V domains shown)
VH: EVQLQQSGAELVKPGASVKLSCTASGFNIKDYYIHWVQQRTEQGLEWIGRIDPEDGETKYAPKFQDKATITADTSSNTAYLHLSSLTSEDTAVYYCARWGAYWGQGTLVTVSS
VL: QIVLTQSPAIMSASPGEKVTLTCSASSSVSSSYLYWYQQKPGSSPKLWIYSTSNLASGVPARFSGSGSGTSYSLTISSMEAEDAASYFCHQWSSYPRTFGAGTKLELK
B4: Antibody B (antibody, human IgG1, kappa, L234A L235A, V domains shown)
VH: QVQLVQSGAEVKKPGASVKVSCKASGYTFTGNYMHWVRQAPGQGLEWMGWINPNSGGTNYAQKFQGRVTMTRDTSISTAYMELSRLRSDDTAVYYCVSGSGWYENYYYYGMDVWGQGTTVTVSS
VL: DIQMTQSPSSVSASVGDRVTITCRASQGISSWLAWYQQKPGKAPKLLIYAESSLQSGVPSRFSGSGSGTDFTLTISSLQPEDFATYYCQQANSFPLTFGGGTKVEIKR
B5: Antibody D (antibody, human IgG1, kappa, L234A L235A, V domains shown)
VH: EVQLVESGGGLVQPGGSLRLSCAASGFTFSSFDMHWVRQPTGKGLEWVSTIGIAGDTYFPGSVKGRFTISRENAKNSLYLQMNSLRAGDTAVYYCARGGNWDDALDIWGQGTMVTVSS
VL: DIQMTQSPSSLSASVGDRVTITCRASQDINNYLAWFQQKPGKAPKSLIYTASSLQSGVPSKFSGSGSGTDFTLTISSLQPEDFATYYCQQYNTYPYTFGQGTKLEIKR
B6: Antibody E (antibody, human IgG1, kappa, L234A L235A)
heavy: not shown
light: DIVMTQSPLSLPVTPGEPASISCKSSQSLLYSNGYNYLDWYLQRPGQSPQLLIYLGSNRASGVPDRFSGSGSGTDFTLKISRVEAEDVGVFYCMQALQTPLTFGGGTKVEIKRTVAAPSVFIFPPSDEQLKSGTASVVCLLNNFYPREAKVQWKVDNALQSGNSQESVTEQDSKDSTYSLSSTLTLSKADYEKHKVYACEVTHQGLSSPVTKSFNRGEC
B7: Antibody E22 (antibody, human IgG1, kappa, L234A L235A, V domains shown)
VH: QVQLQESGPGLVKPSETLSLTCTVSGGSIRDYYWSWIRQPPGKGLEWIGFIYYNGRTFYQSSLKSRVTISLDTSKNQFSLKMTSVTAADTAVYYCARVRAYSGIGLDGTDVWGQGTTVTVSS
VL: DIVMTQSPLSLPVTPGEPASISCRSSQSLLYSTGYTYLDWYLQRPGQSPQLLIYGGSSRASGVPDRFSGSGSGTDFTLKISRVEAEDVGVFYCGQALQTPLTFGQGTKVEIKR
B8: Antibody C (antibody, human IgG1, kappa, L234A L235A, V domains shown)
VH: B5 VH with F32Y, P40A, T50V, F59Y, A87V, N100S, L105F
VL: B5 VL with V15I, R18K, N92V, T93S

Substitutions are numbered along the chain they refer to.

For one test, the target named is T1, full-length human SIRPγ EN→DD on Expi-CHO cells (human, UniProt Q9P1W8 29-387).
T1 construct: the entry already carries the change (PENV to PDDV)
T1 chain: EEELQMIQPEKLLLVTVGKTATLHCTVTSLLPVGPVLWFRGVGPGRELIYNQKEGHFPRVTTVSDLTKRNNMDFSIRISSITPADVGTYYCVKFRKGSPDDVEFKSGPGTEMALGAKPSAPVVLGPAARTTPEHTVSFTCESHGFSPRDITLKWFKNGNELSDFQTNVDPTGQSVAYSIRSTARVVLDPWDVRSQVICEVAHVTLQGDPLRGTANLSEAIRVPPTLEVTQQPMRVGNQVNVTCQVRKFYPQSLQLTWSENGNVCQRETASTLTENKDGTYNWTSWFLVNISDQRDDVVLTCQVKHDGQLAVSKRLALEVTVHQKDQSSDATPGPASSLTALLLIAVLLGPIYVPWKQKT
Put plainly: flow cytometry, Expi-CHO cells. On the procedure: (§1) Expi-CHO parental cells are transduced with lentiviruses containing either full-length wild-type human SIRPγ ([…]) or full-length human SIRPγ with amino acid point mutations (Table 64) and sorted to achieve matching expression levels. These cells are blocked with donkey IgG and incubated on ice with increasing concentrations of antibodies for 60 minutes, washed and stained with AF647-conjugated donkey F(ab′)₂ anti-human IgG antibodies. Stained cells are washed, fixed, and analyzed by flow cytometry. Median fluorescent intensity is determined and used as a measure of antibody binding.
Broadly, the EC50 is the midpoint of the concentration-response curve. Lower therefore signals a more potent agent. B1: the EC50 amounted to 0.6 nM.

The molecule B2 returned an EC50 of 0.7 nM.

For the molecule B3, a half-maximal response (EC50) required 0.3 nM.

With B4, the midpoint of the response, the EC50, lay at 5.3 nM.

In turn, B5 yielded an EC50 of 0.3 nM.

A further test addresses T2, full-length human SIRPγ N→D on Expi-CHO cells (human, UniProt Q9P1W8 29-387).
T2 construct: the entry already carries the change (PENV to PEDV)
Kind of test: flow cytometry, Expi-CHO cells. On the procedure:
as §1
(In general: Flow cytometry measures light scatter and fluorescence of single cells or particles in a stream.)
In turn, B1 returned an EC50 of 0.4 nM.

As for B2, a half-maximal response (EC50) required 0.5 nM.

For the molecule B3, the concentration giving a half-maximal response (EC50) amounted to 0.3 nM.

B4 gave an EC50 of 4.8 nM.

In turn, B5 yielded an EC50 of 0.3 nM.

A further test has as its target T3, full-length human SIRPβL (NP_001129316.1) on cells (human, UniProt Q5TFQ8 30-398).
T3 construct: one molecule for U937 SIRPα-KO transfectants (NP_001129316.1) and Expi-CHO transfectants (Q5TFQ8); also called SIRPβ1v3; βL WT
Kind of test: flow cytometry, Expi-CHO cells. Put shortly: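 Lentivirus-transduced Expi-CHO cells expressing wild-type or single point-mutant SIRPβL, sorted to matched expression, blocked with donkey IgG and incubated on ice 60 min with increasing antibody concentrations. Detection with AF647 anti-human IgG F(ab′)₂ after washing and fixation; median fluorescence intensity taken as binding.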
Regarding B3, a half-maximal effect (EC50) was put at 1 nM.

The molecule B6 yielded a half-maximal effective concentration (EC50) of 1 nM.

The molecule B7 registered an EC50 of 1.2 nM.

A further test concerns the target T4, full-length cynomolgus SIRPβ1v3 (XP_005568593) on CHO cells, clone 1HC6 (cynomolgus monkey).
T4 construct: also called SIRPβ1v3 XP-005568593 Clone 1HC6
Kind of test: flow cytometry, CHO cells. On the procedure: (§2) Antibody binding to cells expressing full-length cynomolgus SIRPβ1 (XP_005568598) and SIRPβ1v3 (XP_005568593) is evaluated by flow cytometry. SIRPβ1- or SIRPβ1V3-expressing CHO cells are blocked with donkey IgG and incubated on ice with increasing concentrations of antibodies for 60 minutes, washed and stained with AF647-conjugated donkey F(ab′)₂ anti-human IgG secondary reagent. Cells are washed, fixed, and analyzed by flow cytometry. Median fluorescent intensity is determined and used as a measure of antibody binding.
In the case of B3, the EC50 worked out at 0.4 nM.

B6 yielded an EC50 of 0.8 nM.

B7 returned an EC50 of 1 nM.

The next test addresses T5, full-length cynomolgus SIRPβ1 (XP_005568598) on CHO cells, clone PA2 (cynomolgus monkey).
T5 construct: whole, on cells; also called SIRPβ1 XP_005568598 Clone PA2
Kind of test: flow cytometry, CHO cells. Here is the method:
as §2
Molecule B1 yielded an EC50 of 0.7 nM.

B2: the EC50 came to 0.6 nM.

Regarding B3, the EC50 worked out at 0.2 nM.

Another test addresses T6, full-length human SIRPαV1 (NP_542970.1) on cells (human, UniProt P78324 31-504).
T6 construct: one molecule for CHO-K1 and Expi-CHO transfectants (NP_542970.1) and for endogenous V1 on U-937 cells and on CD14+ monocytes of V1/V1 donors; also called CHO-hSIRPαV1; αV1 WT
Put plainly: flow cytometry, competition with CD47 tetramer, CHO-K1 cells. On the procedure:
Cells are washed, fixed, and analyzed by flow cytometry. Median fluorescent intensity is determined and used as a measure of CD47 binding.
One may read the IC50 as the concentration needed to halve the response being measured. Low readings indicate greater potency in that assay, high ones weaker potency in that assay. For B8, the half-inhibitory concentration (IC50) was determined as 0.7 nM.

Regarding B3, the half-maximal inhibitory concentration (IC50) came to 0.9 nM.

Regarding B4, the IC50 is 5.6 nM.

On to B6, for which the IC50 amounted to 0.7 nM.

B5 showed an IC50 of 0.6 nM.

The target in the next test is T7, full-length cynomolgus SIRPα (EGM-02252) on CHO cells, clone H3A9 (cynomolgus monkey, UniProt A0A2K5VYQ9).
T7 construct: whole, on cells; also called EGM-02252 Clone H3A9
T7 sequence: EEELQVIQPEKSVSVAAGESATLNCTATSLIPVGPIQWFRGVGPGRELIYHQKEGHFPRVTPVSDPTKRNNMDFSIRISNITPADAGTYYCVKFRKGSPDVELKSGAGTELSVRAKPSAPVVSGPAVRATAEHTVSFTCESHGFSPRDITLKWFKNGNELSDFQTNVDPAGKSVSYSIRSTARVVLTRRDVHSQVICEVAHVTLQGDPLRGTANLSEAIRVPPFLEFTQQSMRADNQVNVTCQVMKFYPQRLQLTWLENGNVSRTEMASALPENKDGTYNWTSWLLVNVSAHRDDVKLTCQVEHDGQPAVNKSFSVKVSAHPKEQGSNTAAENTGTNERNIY
Kind of test: flow cytometry, CHO cells. Here is the method:
(§3) Antibody binding to cells expressing cynomolgus (cyno) SIRPα was evaluated by flow cytometry. CHO-K1 cells expressing full-length cyno SIRPα; derived from protein sequence accession numbers (A) EGM-02252; (B) XP_015313155; or (C) NP_001271679, are blocked with donkey IgG and incubated on ice with increasing concentrations of antibodies for 60 minutes, washed and stained with AF647-conjugated donkey F(ab′)₂ anti-human IgG secondary reagent. Cells are washed, fixed, and analyzed by flow cytometry. Median fluorescent intensity is determined and used as a measure of antibody binding.
On to B1, for which the concentration for a half-maximal effect (EC50) was 1.9 nM.

B2 showed an EC50 of 1.5 nM.

Molecule B3 displayed a 50% effective concentration (EC50) of 0.9 nM.

Another test has as its target T8, full-length cynomolgus SIRPα (NP_001271679) on CHO cells, clone HC6 (cynomolgus monkey, UniProt A0A2K5VYQ9).
T8 construct: whole, on cells; also called NP_001271679 Clone HC6
T8 sequence: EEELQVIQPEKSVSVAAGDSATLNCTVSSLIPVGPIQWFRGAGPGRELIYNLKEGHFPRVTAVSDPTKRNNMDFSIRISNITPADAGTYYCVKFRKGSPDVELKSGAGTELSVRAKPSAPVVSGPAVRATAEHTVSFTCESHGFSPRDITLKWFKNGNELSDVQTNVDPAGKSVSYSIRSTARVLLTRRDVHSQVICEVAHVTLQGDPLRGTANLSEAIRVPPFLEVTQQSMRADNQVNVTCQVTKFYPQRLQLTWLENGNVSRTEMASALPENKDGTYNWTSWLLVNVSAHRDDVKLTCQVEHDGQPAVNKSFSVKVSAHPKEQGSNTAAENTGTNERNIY
Kind of test: flow cytometry, CHO cells. On the procedure: as §3
Consider B1, for which a half-maximal effect (EC50) was put at 4.5 nM.

In turn, B2 returned a concentration giving a half-maximal response (EC50) of 3.7 nM.

In turn, B3 returned an EC50 of 2 nM.
